This is an account of results in patent publication US20260209365A1, “ANTI-COMMON GAMMA CHAIN PROTEINS AND COMPOSITIONS OF MATTER” (SINOMAB BIOSCIENCE LIMITED, priority 2023, published 2026).

Positions count from the first letter of the chain named.

In assay [1] the target is T1, human γc protein (extracellular domain) (human, UniProt P31785 23-262).
T1 construct: Purchased from Sino Biological or made in-house; Residues 1-262 may hold the signal peptide; also called human common gamma chain; purified human γc
T1 sequence: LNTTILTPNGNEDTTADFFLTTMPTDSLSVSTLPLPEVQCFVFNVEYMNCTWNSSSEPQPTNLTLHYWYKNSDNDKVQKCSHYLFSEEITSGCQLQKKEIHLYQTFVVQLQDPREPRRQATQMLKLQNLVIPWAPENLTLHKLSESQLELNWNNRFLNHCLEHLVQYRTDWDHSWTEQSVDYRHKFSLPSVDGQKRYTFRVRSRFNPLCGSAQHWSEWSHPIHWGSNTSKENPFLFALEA
Description: monoclonal phage ELISA, human γc protein; negative control. A general note: An ELISA detects its analyte on a solid surface through an enzyme-linked reagent.

In assay [2] the target is T2, cynomolgus γc protein (extracellular domain), purified (cynomolgus (Macaca fascicularis), UniProt P31785 23-254 (human entry)).
T2 construct: Purchased from Sino Biological or in-house; also called cynomolgus (Macaca fascicularis) γc
T2 chain: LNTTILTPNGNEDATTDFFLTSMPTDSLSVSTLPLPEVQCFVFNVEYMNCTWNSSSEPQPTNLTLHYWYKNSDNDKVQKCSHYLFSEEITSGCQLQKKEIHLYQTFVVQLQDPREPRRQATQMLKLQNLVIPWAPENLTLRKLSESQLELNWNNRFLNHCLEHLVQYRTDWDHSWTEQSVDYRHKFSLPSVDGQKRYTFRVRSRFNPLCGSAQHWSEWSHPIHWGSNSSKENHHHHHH
Description: ELISA, strip coated with 1 µg/ml cynomolgus γc, antibody in 5-fold dilutions from 10 to 0.00064 µg/ml, OD 450 nm; curve stays near baseline up to about 0.4 µg/ml and rises to about 1.35 at 10 µg/ml, no upper plateau. As to the method: (§1) More particularly, FIG. 3A presents the binding curve of SM-05A and FIG. 3B presents the bin ding curve of SM-05E. In each example, the ELISA strip was coated with 1 μg/ml γc protein from each species and antibody was diluted 5-fold each from 10 μg/ml to 0.00064 μg/ml.
(§2) Selected clones of full-length antibodies were evaluated by ELISA to access the binding specificity.

Assay [3] has as its target T3, human γc protein (extracellular domain), purified (human (Homo sapiens), UniProt P31785 23-262).
T3 construct: Either purchased from Sino Biological or in-house generated; also called human common gamma chain; CD132; not shown: which was used i
T3 sequence: T1 sequence
Description: ELISA, strip coated with 1 µg/ml human γc, antibody in 5-fold dilutions from 10 to 0.00064 µg/ml, OD 450 nm; sigmoid curve with plateau about 1.55. As to the method: as §1, §2

Assay [4] deals with T4, chimpanzee γc protein (extracellular domain), purified (chimpanzee (Pan troglodytes), UniProt P31785 23-262).
T4 construct: also called chimpanzee (Pan troglodytes) γc
T4 sequence: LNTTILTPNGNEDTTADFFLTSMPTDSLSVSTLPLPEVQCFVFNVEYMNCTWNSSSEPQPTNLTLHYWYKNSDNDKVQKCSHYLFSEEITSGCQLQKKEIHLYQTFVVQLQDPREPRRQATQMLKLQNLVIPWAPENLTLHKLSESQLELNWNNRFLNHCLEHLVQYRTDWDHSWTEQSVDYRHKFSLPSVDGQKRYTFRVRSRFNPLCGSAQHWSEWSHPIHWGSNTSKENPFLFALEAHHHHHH
Description: ELISA, strip coated with 1 µg/ml chimpanzee γc, antibody in 5-fold dilutions from 10 to 0.00064 µg/ml, OD 450 nm; sigmoid curve reaching about 1.4. The method, then: as §1, §2

Assay [5] deals with T1, human γc protein (extracellular domain). As to the kind of experiment: BLI (Octet RED96), antibody on anti-human IgG sensors, γc in solution; Experiment 2. As to the method: (§3) Full-length humanized antibodies were evaluated by BLI to access their binding kinetics. The binding activities of full-length anti-γc antibody were investigated using γc proteins (extracellular domain) from human and common marmoset (either purchased or in-house generated). Briefly, anti-γc antibody (20 μg/mL) was immobilized on biosensors via interactions with anti-human IgG; serially diluted γc proteins (at a concentration of 158.7 nM, 79.4 Nm, 39.7n M and 0 nM respectively) were subsequently added following standard operation protocols of the Octet ReD96 system to plot out the association and dissociation curve. Irrelevant antibody (SM03, anti-human CD22 chimeric IgG1 antibody, SinoMab BioScience Limited) was used as the control reference. The KD is within the picomolar-single digit nanomolar range.
In general terms: BLI is a label-free optical method that tracks binding on a fibre tip over time.

The target in assay [6] is T5, common marmoset γc protein (extracellular domain) (common marmoset, UniProt P31785 26-262 (human entry)).
T5 construct: also called Callithrix jacchus γc
T5 chain: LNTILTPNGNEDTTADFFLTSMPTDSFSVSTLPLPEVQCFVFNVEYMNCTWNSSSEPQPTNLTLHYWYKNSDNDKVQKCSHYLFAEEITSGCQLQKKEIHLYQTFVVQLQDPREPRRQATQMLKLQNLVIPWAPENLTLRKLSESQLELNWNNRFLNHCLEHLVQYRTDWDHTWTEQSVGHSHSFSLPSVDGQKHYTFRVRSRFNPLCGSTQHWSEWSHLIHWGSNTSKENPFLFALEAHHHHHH
Description: BLI, antibody on anti-human IgG sensors, common marmoset γc in solution. The method, then: as §3

Assay [7] addresses T1, human γc protein (extracellular domain). As to the kind of experiment: BLI (Octet RED96), antibody on anti-human IgG sensors, γc in solution; Experiment 1. The method, then: as §3
In assay [8] the target is T6, cynomolgus γc protein (extracellular domain) (cynomolgus, UniProt P31785 23-254 (human entry)).
T6 construct: also called Macaca fascicularis γc
T6 chain: T2 chain
Description: BLI, antibody on anti-human IgG sensors, cynomolgus γc in solution.

Assay [9] concerns the target T7, rat γc protein (extracellular domain) (rat).
T7 chain: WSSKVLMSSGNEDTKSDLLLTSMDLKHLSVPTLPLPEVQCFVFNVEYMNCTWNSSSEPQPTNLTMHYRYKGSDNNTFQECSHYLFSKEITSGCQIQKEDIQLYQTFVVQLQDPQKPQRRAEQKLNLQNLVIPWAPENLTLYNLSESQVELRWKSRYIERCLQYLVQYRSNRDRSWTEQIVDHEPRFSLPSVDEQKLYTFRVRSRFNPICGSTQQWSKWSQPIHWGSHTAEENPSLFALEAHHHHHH
As to the kind of experiment: BLI, antibody on anti-human IgG sensors, rat γc in solution.

Assay [10] has as its target T8, mouse γc protein (extracellular domain) (mouse, UniProt P34902 23-263).
T8 construct: also called Mus musculus γc
T8 sequence: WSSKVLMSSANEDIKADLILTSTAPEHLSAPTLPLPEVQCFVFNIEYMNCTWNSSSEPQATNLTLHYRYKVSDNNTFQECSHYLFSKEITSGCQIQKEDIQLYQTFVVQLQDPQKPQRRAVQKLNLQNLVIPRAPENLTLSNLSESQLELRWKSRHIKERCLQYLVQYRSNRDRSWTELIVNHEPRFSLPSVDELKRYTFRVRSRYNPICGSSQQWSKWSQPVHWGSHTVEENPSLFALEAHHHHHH
As to the kind of experiment: BLI, antibody on anti-human IgG sensors, mouse γc in solution. The method, then: as §3

The target of assay [11] is T2, cynomolgus γc protein (extracellular …). Description: ELISA, strip coated with 1 µg/ml cynomolgus γc, antibody in 5-fold dilutions from 10 to 0.00064 µg/ml, OD 450 nm; curve stays near baseline up to about 0.08 µg/ml and rises to about 1.65 at 10 µg/ml, no upper plateau. As to the method:
as §1, §2

The target of assay [12] is T3, human γc protein (extracellular …). Description: ELISA, strip coated with 1 µg/ml human γc, antibody in 5-fold dilutions from 10 to 0.00064 µg/ml, OD 450 nm; sigmoid curve with plateau about 1.6. The method, then:
as §1, §2

The target in assay [13] is T4, chimpanzee γc protein (extracellular …). Description: ELISA, strip coated with 1 µg/ml chimpanzee γc, antibody in 5-fold dilutions from 10 to 0.00064 µg/ml, OD 450 nm; curve rises to about 1.5 at the last point shown. As to the method: as §1, §2

The molecule M13KO7 (negative) yielded an OD (450 nm) in [1] of 0.045 OD.

B1: SM-05A full-length chimeric anti-γc antibody (antibody, V domains shown)
VH: EVQLQQSGPELVKPGASVKISCKTSGYTFTEYTMHWVKQSHGKSLEWIGGIDPYNGGATYNQRFKGKATLTVDKSSSTAYMEFRSLTSEDSAVYYCARRRLYYGNALDYWGQGTSVTVSS
VL: DVLMTQTPLSLPVSLGDQASISCRSSQSLVHSNGNTYLHWYLQRPGQSPKLLIYKVSSRFSGVPDRFSGSGSGTDFTLKISRVEAEDLGVYFCSQTTHVPFTFGSGTKLEIKR
notes: Full-length chimeric antibody made in Expi-CHO (mouse variable, human constant regions)
Regarding B1, the EC50 in [2] was found to be 14.5 µg/mL; in assay [3] it was 0.02 µg/mL; in assay [4], 0.17 µg/mL.

B2: hSM-05A (humanized anti-γc antibody with back-mutation) (antibody, V domains shown)
VH: QVQLVQSGAEVLKPGASVKVSCKASGYTFTEYTMHWVKQARGQRLEWIGGIDPYNGGATYNQRFKGKATLTTDTSTSTAYMELRNLRSDDTAVYYCARRRLYYGNALDYWGQGTLVTVSS
VL: B1 VL with V2I, L3V, T7S, S14T, L15P, D17E, R44K, K50Q, L88V
notes: Full-length humanized antibody; 199-200' and the pairing of claim 11(b); also called hbSM-05A; humanized SM-05A
As for B2, the Kd in [5] came out at 8.23 nM; in [6], 4.05 nM; in assay [7] it was 2.69 nM; in [8], 304 nM; in assay [9], 16.1 nM; in assay [10], 108 nM. For the same molecule, the koff in [5] came to 0.00144 s⁻¹; in [6] it was 0.00121 s⁻¹; in assay [7], 0.000319 s⁻¹; in [8] it was 0.00683 s⁻¹; in assay [10] it was 0.000712 s⁻¹. The kon is 175000 M⁻¹ s⁻¹ in assay [5]; 300000 M⁻¹ s⁻¹ in assay [6]; 119000 M⁻¹ s⁻¹ in assay [7]; 22500 M⁻¹ s⁻¹ in assay [8]; 6580 M⁻¹ s⁻¹ in assay [10].

B3: SM-05E full-length chimeric anti-γc antibody (antibody, V domains shown)
VH: EVHLQQSGPELVKPGASVKIFCKTSGYTFTEYTMHWVKQSHGESLEWIGGIDPNTGGVTYNQKFKGKATLTADKSSSTAYMELRSLTSEDSAVYYCARRRRYYGYALDYWGQGTSVTVSS
VL: B1 VL with L29I, H39E, R44K, S58N, R82S, T96S, T102M
notes: Full-length chimeric antibody made in Expi-CHO
For B3, the results for the EC50 in assay [11], in assay [12] and in assay [13] were 6.47 µg/mL, 0.02 µg/mL and 0.17 µg/mL, respectively.

B4: hSM-05E (humanized anti-γc antibody with back-mutation) (antibody, V domains shown)
VH: B2 VH with Y54N, N55T, A58V, R63K, L101R, N105Y
VL: DIVMTQSPLSLPVTPGEQASISCRSSQSIVHSNGNTYLEWYLQKPGQSPQLLIYKVSNRFSGVPDRFSGSGSGTDFTLKISRVEAEDVGVYFCSQSTHVPFMFGSGTKLEIKR
notes: Full-length humanized antibody; VH 198 / VL 200 tied to SM-05E only by the order '(e.g., SM-05A, SM-05E) ; 199-200' and the pairing of claim 11(d); also called hbSM-05E; humanized SM-05E
Consider B4, for which the Kd was 2.89 nM in assay [5]; 5.27 nM in [6]; 4.82 nM in assay [7]; 304 nM in assay [8]; 29.3 nM in assay [9]; 66.2 nM in [10]. For the same molecule, the koff in [5] amounted to 0.000944 s⁻¹; in assay [6], 0.00175 s⁻¹; in assay [7], 0.000573 s⁻¹; in assay [8], 0.00683 s⁻¹; in assay [9] it was 0.00208 s⁻¹; in assay [10], 0.0252 s⁻¹. The kon amounted to 327000 M⁻¹ s⁻¹ in assay [5]; 333000 M⁻¹ s⁻¹ in [6]; 119000 M⁻¹ s⁻¹ in assay [7]; 22500 M⁻¹ s⁻¹ in [8]; 71000 M⁻¹ s⁻¹ in [9]; 340000 M⁻¹ s⁻¹ in assay [10].

As a reminder, the EC50 is the concentration needed to bring the measured effect to its halfway point. Higher therefore signals a need for much substance. In general, Kd refers to the constant that tells how readily two partners part at equilibrium. For orientation: koff means the first-order rate constant of dissociation. Low readings indicate slow dissociation, high ones fast dissociation. The kon is the rate constant with which the complex forms. A high value points to fast association.
